From patent US20220362355

Target: fibrin clot obtained by reacting fibrinogen with thrombin

B1: recombinant protein HtrA2 (residues 134-458 of the HtrA2 amino acid sequence) (protein)
chain: AVPSPPPASPRSQYNFIADVVEKTAPAVVYIEILDRHPFLGREVPISNGSGFVVAADGLIVTNAHVVADRRRVRVRLLSGDTYEAVVTAVDPVADIATLRIQTKEPLPTLPLGRSADVRQGEFVVAMGSPFALQNTITSGIVSSAQRPARDLGLPQTNVEYIQTDAAIDFGNSGGPLVNLDGEVIGVNTMKVTAGISFAIPSDRLREFLHRGEKKNSSSGISGSQRRYIGVMMLTLSPSILAELQLREPSFPDVQHGVLIHKVILGSPAHRAGLRPGDVILAIGEQMVQNAEDVYEAVRTQSQLAVQIRRGRETLTLYVTPEVTE
Question: With B1 as the protein, how does the A415 (dissolution of the fibrin clot, spectrophotometer, 2 mg/ml enzyme, 37 C, 24 h) read?
Answer: 1 ± 0.09 A415
